Assay results taken from patent US11110182B2, “Multifunctional RNA nanoparticles and methods for treating cancer and therapeutic resistant cancer” (University of Cincinnati, priority 2016, dated 2021).

B1: pRNA-HER2apt-siMED1: 3-WJ pRNA nanoparticle bearing a HER2-targeting RNA aptamer and two different MED1 siRNAs; strands p1 SEQ ID NO: 3, p2 SEQ ID NO: 4 (nucleic acid)
chain 1: GGACAGUGAAAGUGAGUCAAAGGAUCAAUCAUGGCCAAAGAUGUUACUUUGAGAGCCUU
chain 2: GGCUCUCAAAGUAACAUCUAAGGCCAUGUGUAUGUGGGGGGAGGACGAUGCGGUCUGCUGUGCUUGAUAUGCCCCAGACGACUCGCCCCCCACAUACUUUGUUGAUCCAAUGACUCACUUUCACUGUCCUU
modifications: 2'-F modification; third strand may lack entry; pRNA-HER2apt-siMED1, p1; pRNA-HER2apt-siMED1, p2
B2: pRNA-HER2apt^mut-siMED1: control pRNA nanoparticle with mutant HER2 aptamer; strands p1 SEQ ID NO: 5, p2 SEQ ID NO: 6 (nucleic acid)
chain 1: GGACAGUGAAAGUGAGUCAAAGGAUCAAUCAUGGCCAAAGAUGUUACUUUGAGAGCCUU
chain 2: GGCUCUCAAAGUAACAUCUAAGGCCAUGUGUAUGUGGGAUGAGGAGUAUGAAGAUACCUGUACUUGAUAUGCCCCAGACGACAUUCCCCCCACAUACUUUGUUGAUCCAAUGACUCACUUUCACUGUCCUU
modifications: pRNA-HER2apt(mut)-siMED1, p1; pRNA-HER2apt(mut)-siMED1, p2

Test system: MED1
Assay: MED1 protein level by western blots in MDA-MB-231 cells
Type: cell-based, human
Conditions: MDA-MB-231, transfected, 48 h
Text: FIG. 8A) HER2 expression in BT474 and MDA-MB-231 cells determined by western blot analyses. FIG. 8B) The binding of AF-647-labeled pRNA-HER2apt-siMED1 and its mutant nanoparticles to MDA-MB-231 and BT474 cells examined by confocal microscopy. Green represents the immunofluorescent staining of HER2, and blue represents nuclear staining with DAPI. FIG. 8C) The internalization of AF647-labeled pRNA nanoparticles by MDA-MB-231 cells examined by confocal microscopy. Green represents the immunofluorescent staining of β-actin. Scale bar: 10 μm. FIG. 8D) The cellular uptake of AF647-labeled pRNA nanoparticles by MDA-MB-231 cells quantified by flow cytometry. FIG. 8E) HER2 expression in BT474 xenograft tumors was examined by western blot analyses. FIG. 8F) MDA-MB-231 cells were incubated directly with (as indicated by-) or transfected with pRNAs using lipofectamine 2000. At 48 h post treatment, MED1 protein levels were determined by western blots.
Cell culture. […] The hydrodynamic diameter and Tm value of pRNA nanoparticles were determined using dynamic light scattering and TGGE assay, respectively, as previously described.^54 The AFM imaging of the pRNA nanoparticles was performed at the University of Nebraska Medical Center imaging facility as previously reported.^55 Briefly, the pRNA nanoparticles (5 μL) were deposited on APS modified mica ^56 for a total of 2 min of incubation time. […]

| Molecule | MED1 protein level after transfection with lipofectamine 2000 |
| --- | --- |
| B1 | MED1 silencing |
| B2 | MED1 silencing |
